Laboratory results taken from patent US20250313612A1 (Adimab, published 2025).
Numbering of substitutions follows the chain as printed.

B1: ADI-14460 (antibody, V domains shown)
VH: QVQLQQWGAGLLKPSETLSLSCTVSGGVFGNYFWSWVRQAPGKGLEWIGEINQIGTTNYSPSASLKSRVTISVDPSRNQFSLSLRSVTAADTARYYCTRSETSDYFDSSGYAFHIWGEGTMVTVSS
VL: LPVLTQPASVSGSPGQSITISCSGISSDGGRYNYVSWYQQHPGKAPKLLIYDDSNWPLGVSHRFSGSKSGNTASLTISGLRAEDEADYYCGSYTDTNRLFGGGTQLTVL
notes: full-length IgG (yeast-expressed); also called Antibody Number 23; Ab# 23
B2: ADI-14458 (antibody, V domains shown)
VH: QVQLVESGGGLVKPGGSLRLSCAASGFIFSNAWMSWVRQSPGKGLEWVGRIKTKTEGATTDHAAPLKGRFTISRDDSRNTLYLQMDSLTTEDTAVYFCTTGPPYSYFDSTGYSIVDYWGQGTLVTVSS
VL: SYELTQPPAASGTPGQRVTISCSGSSSNIGSEYVLWYQQVPGTAPKLLIYNSHQRPSGVPDRISGSRSGTSASLAISGLRSEDEAHYYCASWDDSLSGPVFGGGTQLTVL
notes: full-length IgG (yeast-expressed); also called Antibody Number 21; Ab# 21
B3: ADI-14470 (antibody, V domains shown)
VH: QVTLKESGPALVKPTETLTLTCTFSGFSLSTKRLSVSWIRQPPGKALEWLARIDWDDDKSYSTSLRTRLTIAKDTSKNQVVLTMTNMGPADTATYFCVRSSVYASNAYYLYYFDSWGQGTLVTVSS
VL: DIRMTQSPSSLSASVGDRVTITCRASQSIATYLNWYQHKPGKAPTLLIYAASILHSGVPPRFSGRASGTDFTLTISSLQPEDFATYYCQQAYSSPYTFGQGTKVDIK
notes: full-length IgG (yeast-expressed); also called Antibody Number 33; Ab# 33
B4: ADI-14454 (antibody, V domains shown)
VH: QVQLVQSGPTLVKPTQTLTLTCTFSGFSLSTRGVGVGWIRQPPGKALECLGFTYWDGDQFHSPSLKNRLTITKDTSKNQVVLRMTNMDPVDTATYFCVHSDLYDSGGYYLYYFDYWGQGTLVTVSS
VL: DIQMTQSPSSLSASVGDRVTITCRASQTIASYLNWYQQRPGEAPKLLIYAASSLQSGVSSRFSGRGSGTDFTLTINILQPEDLATYFCQQAYSAPYTFGQGTKVEIK
notes: full-length IgG (yeast-expressed); also called Antibody Number 17; Ab# 17
B5: ADI-14457 (antibody, V domains shown)
VH: QVTLKESGPALVRPKQTLTLTCSFSGFSLDTQRTGVNWIRQSPGKALEWLARIDWDGNIYSSTSVRTKLSISKGTSKNQVVLTMTDVDPVDTATYYCARTLYYTSGGYYLNLFDYWGQGTLVTVSS
VL: EIVMTQSPPSLSASVGDRVTITCRASQTIPSYVNWYQQISGKAPRLLIYAASLLQSGVPSRFSGSGSGTEFSLTISGLRPEDFGTYYCQQSYSSTPTFGQGTKVEIK
notes: full-length IgG (yeast-expressed); also called Antibody Number 20; Ab# 20
B6: ADI-14484 (antibody, V domains shown)
VH: B5 VH
VL: B5 VL with K103R, V104L
notes: full-length IgG (yeast-expressed); also called Antibody Number 45; Ab# 45
B7: ADI-14453 (antibody, V domains shown)
VH: QITLKESGPTVVKPTQTLTLTCTFSGFSLNTRGMGVAWIRQPPGGALEWLALVDWDDDKRYSPSLRSRLTITKDTSKNQVLFTMTTMDPADTATYYCAHIGLYDRGGYYLFYFDFWGQGTLVTVSS
VL: DIVLTQSPSSLSASVGDRVTITCRASQSIASYVNWFQQKPGKAPVLLMFASSILQSGVPPRFRGSGSGTDFTLTITSLQPEDFATYYCQHTYTTPYIFGRGTKVEIK
notes: full-length IgG (yeast-expressed); also called Antibody Number 16; Ab# 16
B8: ADI-14476 (antibody, V domains shown)
VH: QVQLVESGPTLVKPTQTLSLTCTFSGFSLTTRGVGVGWIRQPPGKALEWLGFTYWDGDDRYSPSLRNRVSIAKDTSKNQVVLTLTNMDPVDTATYFCVHSDRYDRGGYYLYFFDYWGPGTLVTVSS
VL: DIRVTQSPSSLSASVGDRVSISCRASQTIASYVNWYQQRPGKAPQLLIFAASHLQTGVPSRFSGRGSGTDFTLTITSLQPEDFATYYCQQSYTSPYTFGQGTKVEIK
notes: full-length IgG (yeast-expressed); also called Antibody Number 38; Ab# 38
B9: ADI-14459 (antibody, V domains shown)
VH: QVQLVQSGGGLVKPGGSLRLSCAASGFTFSNAWMSWVRQAPGKGLDWVGRIKTKADGGTRDYAAPVKGRFTISRDDSENTLYLQMTSLKTEDTGVYYCSTGPPYKYHDSTGYSVVDYWGQGTLVTVSS
VL: SYELTQPPSASGTPGQRVTISCSGGSSNIGSDYVYWYQQLPGTAPKLLIYGSSQRPSGVPDRFSGSQSGTSASLAISGLRSEDEADYYCAMWDDSLNGPVFGGGTKLTVL
notes: full-length IgG (yeast-expressed); also called Antibody Number 22; Ab# 22
B10: ADI-14475 (antibody, V domains shown)
VH: QVQLVQSGPALVKPTQTLTLTCTFSGFSLTTARMCVSWIRQPPGKALEWLARIDWDDDKSYSTSLKTRLTIAKDTSKNQVVLTMTNMGPADTATYYCVRTPIYASGGYYLSYFDSWGQGTLVTVSS
VL: DIVMTQSPSSLSASVGDSVTITCRASQTIASYVNWYQHKPGQAPNLLIYAASILHSGVPSRFRGGGSGTDFTLTINSLQPEDFATYYCQQSYSTPYTFGQGTKVDIK
notes: full-length IgG (yeast-expressed); also called Antibody Number 37; Ab# 37
B11: ADI-14468 (antibody, V domains shown)
VH: QVQLVQSGPTLVRPTQTLTLTCTFSGFSLSTRGVGVGWVRQSPGKAPEFLVLAHWDDDKIYSPSLRRRLSVTKDVSKNQVVLALTNVDPVDTGTYFCVKSDLYDRGGYYLYYFDHWGQGTLVTVSS
VL: DIRMTQSPSSLSASVGDRVTITCRASQTIASYVNWYLQRPGEAPKLLIYAASNLHSGAPPSLIGRGSGTDFTLTINTLQPEHFGTYFCQQTFSSPYTFGQGTKVEIK
notes: full-length IgG (yeast-expressed); also called Antibody Number 31; Ab# 31
B12: ADI-14469 (antibody, V domains shown)
VH: QVQLVESGPTLVKPTQTLTLTCTFSGFSLTTRGVGVGWVRQPPGKALEFLGLTHWDDDKIYSPSLRRRLTITKDTSKNQVVLALANVDPVDTATYFCVKSDLYDRGGYYLYYFDYWGQGTLVTVSS
VL: B11 VL with D1E, R3V, M4L, A30P, A50G, S56T, S61T, L62F, T69A, F87Y
notes: full-length IgG (yeast-expressed); also called Antibody Number 32; Ab# 32
B13: ADI-14440 (antibody, V domains shown)
VH: QVQLVQSGAEVKKPGSSVKVSCKASGGTINNVAISWLRQAPGQGLEWLGGNIPGFGKVRYSQQFETRLTLTADVSSDTAYMVLTSLRSEDTAVYYCAIIDPQLCTRASCFWVNWLDPWGQGTTVTVSS
VL: DIVMTQSPGTLSVSPGESAALSCGASESILSDSLAWYQHKPGQAPRLLIYGASSRAAGIPDRFSGSGSGTDFTLTISRLEPEDFAVYFCQQFGALPITFGQGTRLEIK
notes: full-length IgG (yeast-expressed); also called Antibody Number 3; Ab# 3
B14: ADI-14466 (antibody, V domains shown)
VH: QVQLVQSGAEAKKPGEPLRISCKGSGYTFSSYWISWVRQRPGERLEWMGRIDPSDSYAYSSPSFQGHVTFSADKSSNTAFLQWSSLQASDTAIYYCARHKENYDFWDFWGQGTMVTVSS
VL: ETTLTQSPDSLAVSLGERATINCRSSQPILFNPINKLSLAWYQLKPGQPPKLLISWASTREPGVPDRFNGSGSGTVFTLTISSLQPEDVAVYVCQQYFTSTFFGPGTKVEIK
notes: full-length IgG (yeast-expressed); also called Antibody Number 29; Ab# 29

biological target: T1, RSV F ectodomain stabilized in the postfusion conformation (F ΔFP), subtype B (Respiratory syncytial virus subtype B, UniProt P13843 26-109; P13843 147-524); experiment: BLI, IgG on AHQ sensor, 100 nM antigen
T1 construct: extracellular domain; trimer; also called Postfusion subtype B; postF subtype B

In order of falling Kd:
1. B8  9.12 nM
2. B12  2.9 nM
3. B1  2.56 nM
4. B13  2.39 nM
5. B4  0.483 nM
6. B5  0.461 nM
7. B6  0.394 nM
8. B3  0.314 nM
9. B10  0.242 nM
10. B11  0.241 nM
11. B7  0.228 nM
12. B9  0.183 nM
13. B14  0.169 nM
14. B2  0.126 nM

biological target: T2, RSV F ectodomain stabilized in the postfusion conformation (F ΔFP), subtype A (Respiratory syncytial virus subtype A, UniProt P03420 26-109; P03420 147-524); experiment: BLI, IgG on AHQ sensor, 100 nM antigen
T2 construct: extracellular domain; trimer; furin-cleaved; also called Postfusion subtype A

In order of falling Kd:
1. B1  2.86 nM
2. B13  1.45 nM
3. B8  0.827 nM
4. B6  0.389 nM
5. B5  0.38 nM
6. B3  0.358 nM
7. B12  0.301 nM
8. B10  0.299 nM
9. B4  0.297 nM
10. B11  0.297 nM
11. B9  0.264 nM
12. B7  0.261 nM
13. B14  0.247 nM
14. B2  0.196 nM

biological target: RSV F protein of recombinant mKate-RSV, subtype B (18537) (Respiratory syncytial virus subtype B …, UniProt P13843 26-574); experiment: cell-based or functional assay

First: B1
Second: B2
The “Neut IC50 subtype B” value of the first is 2.3-fold higher: 0.239 µg/mL for the first, 0.104 µg/mL for the second.

Compared with B3, B4 is 5.4-fold higher in “Neut IC50 subtype B” value: 0.473 µg/mL for the first, 2.54 µg/mL for the second.

B5 and B6 are within 1.5-fold of each other in “Neut IC50 subtype B” value: 0.251 µg/mL for the first, 0.169 µg/mL for the second.

Going from B7 to B8, the “Neut IC50 subtype B” value falls from greater than 10 µg/mL to 2.19 µg/mL.

B9 and B10 are within 1.5-fold of each other in “Neut IC50 subtype B” value: 0.753 µg/mL for the first, 0.522 µg/mL for the second.

Going from B11 to B12, the “Neut IC50 subtype B” value falls from 2.41 µg/mL to 0.013 µg/mL (190-fold).

First: B13
Second: B14
The “Neut IC50 subtype B” value of the first is 16-fold higher: 4.18 µg/mL for the first, 0.263 µg/mL for the second.

biological target: RSV F protein of recombinant mKate-RSV, subtype A (strain A2) (Respiratory syncytial virus subtype A …, UniProt P03420 26-574); experiment: cell-based or functional assay

First: B1
Second: B2
The “Neut IC50 subtype A” value of the first is 1.6-fold lower: 0.102 µg/mL for the first, 0.161 µg/mL for the second.

B3 and B4 are within 1.5-fold of each other in “Neut IC50 subtype A” value: 0.226 µg/mL for the first, 0.23 µg/mL for the second.

Going from B5 to B6, the “Neut IC50 subtype A” value rises from 0.2 µg/mL to 0.448 µg/mL (2.2-fold).

Going from B7 to B8, the “Neut IC50 subtype A” value falls from greater than 10 µg/mL to 0.929 µg/mL.

B9 and B10 are within 1.5-fold of each other in “Neut IC50 subtype A” value: 0.396 µg/mL for the first, 0.391 µg/mL for the second.

Going from B11 to B12, the “Neut IC50 subtype A” value falls from 0.241 µg/mL to 0.05 µg/mL (4.8-fold).

Compared with B13, B14 is lower in “Neut IC50 subtype A” value: greater than 10 µg/mL for the first, 0.144 µg/mL for the second.
